The Human Domainome abundance scans (Beltran et al. 2025)
± gives the uncertainty stated by the source.

B1: Zinc finger MYM-type protein 6, residues 427 to 504; numbered along this chain, O95789 (parent)
chain: KLKCQHCNHLFATKPELLFYKGKMFLFCGKNCSDEYKKKNKVVAMCDYCKLQKIIKETVRFSGVDKPFCSEVCKFLSA
B2: Far upstream element-binding protein 3, residues 75 to 150; numbered along this chain, Q96I24 (parent)
chain: RTVITEEFKVPDKMVGFIIGRGGEQISRIQAESGCKIQIASESSGIPERPCVLTGTPESIEQAKRLLGQIVDRCRN

Variants of: B1
Experiment: abundance fitness (aPCA) (normalised: wild type 0, dead -1); higher = more abundant; growth selection in yeast, the domain comes from the species named
Conditions: Homo sapiens

Variant | abundance fitness
E71K | 0.16 ± 0.17
E71H | -0.09 ± 0.39
E71Y | -0.28 ± 0.19
E71Q | -0.194 ± 0.23
E71P | -0.054 ± 0.16
E71G | -0.292 ± 0.092
E71L | -0.962 ± 0.19
E71T | 0.076 ± 0.1
E71R | -0.111 ± 0.081
E71A | -0.188 ± 0.092
E71M | 0.094 ± 0.14
E71S | -0.239 ± 0.14
E71W | -0.634 ± 0.18
V72E | 0.535 ± 0.073
V72N | 0.64 ± 0.15
V72Y | 0.757 ± 0.3
V72W | 0.353 ± 0.094
V72Q | 0.562 ± 0.086
V72R | 0.411 ± 0.066
V72A | 0.252 ± 0.07
V72L | 0.003 ± 0.12

Variant | abundance fitness
V72G | 0.036 ± 0.073
V72S | 0.239 ± 0.092
V72H | 0.016 ± 0.33
V72K | 0.775 ± 0.19
V72C | 0.553 ± 0.2
V72T | 0.216 ± 0.1
V64I | 0.365 ± 0.2
V64T | 0.037 ± 0.18
V64K | -0.298 ± 0.24
V64C | -0.432 ± 0.15
V64A | -0.302 ± 0.13
V64E | 0.09 ± 0.1
V64Q | -0.009 ± 0.11
V64D | 0.474 ± 0.25
V64F | -0.448 ± 0.4
V64R | 0.058 ± 0.086
V64W | -0.765 ± 0.18
V64M | 0.606 ± 0.095
V64G | 0.046 ± 0.063
V64S | -0.107 ± 0.1
V64Y | 0.387 ± 0.21

Variants of: B2
Experiment: as above
Conditions: Homo sapiens

Variant | abundance fitness
G16N | -0.055 ± 0.065
G16M | -0.12 ± 0.043
G16D | -0.003 ± 0.043
G16T | -0.063 ± 0.037
E7L | -0.048 ± 0.029
E7M | -0.111 ± 0.04
E7S | -0.019 ± 0.032
E7A | -0.078 ± 0.031
E7F | 0.088 ± 0.05
Q69H | 0.021 ± 0.059
Q69R | 0.005 ± 0.029
Q69F | -0.181 ± 0.062
Q69K | -0.046 ± 0.044
P50G | -0.014 ± 0.026
P50H | -0.04 ± 0.05
G23H | -0.077 ± 0.067
N76K | -0.183 ± 0.079
N76I | -0.178 ± 0.086
K9G | -0.006 ± 0.026
Q25W | -0.213 ± 0.033
T56P | -0.094 ± 0.036
F17H | -0.026 ± 0.061
F17W | -0.052 ± 0.037
F17Y | -0.019 ± 0.065
V15P | -0.37 ± 0.049

Variant | abundance fitness
A40D | 0.002 ± 0.043
A40M | -0.063 ± 0.04
L53I | -0.016 ± 0.077
L53Q | -1.13 ± 0.12
I46C | 0.023 ± 0.048
I46H | 0.02 ± 0.066
V3L | -0.007 ± 0.034
V3M | -0.037 ± 0.046
V3R | -0.085 ± 0.027
I37A | -0.515 ± 0.034
A63Y | -1.59 ± 0.33
R75G | 0.038 ± 0.026
R75H | -0.006 ± 0.069
P47F | -0.096 ± 0.044
P47N | -0.077 ± 0.054
I19K | -0.057 ± 0.053
I19H | -0.163 ± 0.074
I29Y | -0.579 ± 0.071
E48I | -0.162 ± 0.054
S27I | -0.187 ± 0.074
S27V | -0.092 ± 0.033
P57V | -0.06 ± 0.037
S44I | -0.07 ± 0.086
S44V | -0.05 ± 0.031
S44F | -0.06 ± 0.062

Variant | abundance fitness
R21I | -0.107 ± 0.07
R21G | -0.064 ± 0.027
I18A | -0.225 ± 0.031
I18N | -0.295 ± 0.056
I18P | -0.192 ± 0.041
E58A | -0.025 ± 0.04
E58S | -0.05 ± 0.039
I60P | -1.1 ± 0.089
I60R | -0.21 ± 0.028
I60L | -0.119 ± 0.033
I60S | -0.836 ± 0.055
I60C | -0.088 ± 0.048
R1H | -0.034 ± 0.14
R1A | -0.077 ± 0.046
T5Q | -0.099 ± 0.046
T5W | -0.192 ± 0.037
T5I | -0.231 ± 0.1
Q62G | -0.055 ± 0.035
E42Y | -0.086 ± 0.057
E42T | -0.04 ± 0.041
E42W | -0.069 ± 0.035
C51S | -0.366 ± 0.04
C51F | -0.009 ± 0.061
C51E | -0.924 ± 0.06
L67A | -0.845 ± 0.05

Variant | abundance fitness
L67D | -0.884 ± 0.089
L67K | -0.834 ± 0.07
L67E | -0.757 ± 0.051
I39V | -0.027 ± 0.029
G45L | -0.124 ± 0.029
T2Q | -0.003 ± 0.042
T2G | 0 ± 0.029
S43G | -0.041 ± 0.027
S43V | -0.057 ± 0.032
V52H | -0.064 ± 0.061
V52L | -0.023 ± 0.033
E61W | -0.111 ± 0.036
S33K | -0.787 ± 0.081
S33N | -0.685 ± 0.075
K13C | -0.058 ± 0.041
M14F | -0.127 ± 0.08
M14K | -0.345 ± 0.055
G68W | -0.065 ± 0.037
Q38Y | -0.172 ± 0.077
Q38V | -0.007 ± 0.028
Q38F | -0.1 ± 0.098
Q38M | -0.101 ± 0.043
C74W | -0.022 ± 0.031
F8E | -0.351 ± 0.038
F8W | -0.027 ± 0.031

Variant | abundance fitness
I4H | -0.146 ± 0.052
I4K | -0.035 ± 0.049
P11I | -0.297 ± 0.081
T54R | -0.018 ± 0.034
S59Q | -0.014 ± 0.043
S59C | -0.146 ± 0.047
S41C | -0.026 ± 0.044
S41R | 0.032 ± 0.027
S41G | -0.015 ± 0.026
G34A | -0.124 ± 0.031
A31G | -0.06 ± 0.025
A31T | -0.039 ± 0.038
A31Q | 0.003 ± 0.038
D12K | -0.066 ± 0.049
K36F | -0.234 ± 0.07
K36G | -0.112 ± 0.029
E6A | -0.067 ± 0.03
R28F | -0.218 ± 0.067
R28C | -0.172 ± 0.047
I70E | -0.004 ± 0.035
I70G | -0.205 ± 0.027
I70K | -0.138 ± 0.044
G22Q | -0.085 ± 0.044
G22D | 0.016 ± 0.051
I26L | -0.019 ± 0.032
